# Earlier results as cited in PMC11260871.
# Key:
# [1] = target: laminin gamma LN domain LN (UniProt P11047)
# [2] = target: laminin gamma1 LEb (UniProt P11047)
# [3] = target: laminin alpha2 (UniProt P24043)
# [4] = target: laminin alpha1 (UniProt P25391)
# [5] = target: laminin alpha4 (UniProt Q16363)
# [6] = target: laminin alpha5 (UniProt O15230)
# UniProt P24043, sequence (P24043 23-3122): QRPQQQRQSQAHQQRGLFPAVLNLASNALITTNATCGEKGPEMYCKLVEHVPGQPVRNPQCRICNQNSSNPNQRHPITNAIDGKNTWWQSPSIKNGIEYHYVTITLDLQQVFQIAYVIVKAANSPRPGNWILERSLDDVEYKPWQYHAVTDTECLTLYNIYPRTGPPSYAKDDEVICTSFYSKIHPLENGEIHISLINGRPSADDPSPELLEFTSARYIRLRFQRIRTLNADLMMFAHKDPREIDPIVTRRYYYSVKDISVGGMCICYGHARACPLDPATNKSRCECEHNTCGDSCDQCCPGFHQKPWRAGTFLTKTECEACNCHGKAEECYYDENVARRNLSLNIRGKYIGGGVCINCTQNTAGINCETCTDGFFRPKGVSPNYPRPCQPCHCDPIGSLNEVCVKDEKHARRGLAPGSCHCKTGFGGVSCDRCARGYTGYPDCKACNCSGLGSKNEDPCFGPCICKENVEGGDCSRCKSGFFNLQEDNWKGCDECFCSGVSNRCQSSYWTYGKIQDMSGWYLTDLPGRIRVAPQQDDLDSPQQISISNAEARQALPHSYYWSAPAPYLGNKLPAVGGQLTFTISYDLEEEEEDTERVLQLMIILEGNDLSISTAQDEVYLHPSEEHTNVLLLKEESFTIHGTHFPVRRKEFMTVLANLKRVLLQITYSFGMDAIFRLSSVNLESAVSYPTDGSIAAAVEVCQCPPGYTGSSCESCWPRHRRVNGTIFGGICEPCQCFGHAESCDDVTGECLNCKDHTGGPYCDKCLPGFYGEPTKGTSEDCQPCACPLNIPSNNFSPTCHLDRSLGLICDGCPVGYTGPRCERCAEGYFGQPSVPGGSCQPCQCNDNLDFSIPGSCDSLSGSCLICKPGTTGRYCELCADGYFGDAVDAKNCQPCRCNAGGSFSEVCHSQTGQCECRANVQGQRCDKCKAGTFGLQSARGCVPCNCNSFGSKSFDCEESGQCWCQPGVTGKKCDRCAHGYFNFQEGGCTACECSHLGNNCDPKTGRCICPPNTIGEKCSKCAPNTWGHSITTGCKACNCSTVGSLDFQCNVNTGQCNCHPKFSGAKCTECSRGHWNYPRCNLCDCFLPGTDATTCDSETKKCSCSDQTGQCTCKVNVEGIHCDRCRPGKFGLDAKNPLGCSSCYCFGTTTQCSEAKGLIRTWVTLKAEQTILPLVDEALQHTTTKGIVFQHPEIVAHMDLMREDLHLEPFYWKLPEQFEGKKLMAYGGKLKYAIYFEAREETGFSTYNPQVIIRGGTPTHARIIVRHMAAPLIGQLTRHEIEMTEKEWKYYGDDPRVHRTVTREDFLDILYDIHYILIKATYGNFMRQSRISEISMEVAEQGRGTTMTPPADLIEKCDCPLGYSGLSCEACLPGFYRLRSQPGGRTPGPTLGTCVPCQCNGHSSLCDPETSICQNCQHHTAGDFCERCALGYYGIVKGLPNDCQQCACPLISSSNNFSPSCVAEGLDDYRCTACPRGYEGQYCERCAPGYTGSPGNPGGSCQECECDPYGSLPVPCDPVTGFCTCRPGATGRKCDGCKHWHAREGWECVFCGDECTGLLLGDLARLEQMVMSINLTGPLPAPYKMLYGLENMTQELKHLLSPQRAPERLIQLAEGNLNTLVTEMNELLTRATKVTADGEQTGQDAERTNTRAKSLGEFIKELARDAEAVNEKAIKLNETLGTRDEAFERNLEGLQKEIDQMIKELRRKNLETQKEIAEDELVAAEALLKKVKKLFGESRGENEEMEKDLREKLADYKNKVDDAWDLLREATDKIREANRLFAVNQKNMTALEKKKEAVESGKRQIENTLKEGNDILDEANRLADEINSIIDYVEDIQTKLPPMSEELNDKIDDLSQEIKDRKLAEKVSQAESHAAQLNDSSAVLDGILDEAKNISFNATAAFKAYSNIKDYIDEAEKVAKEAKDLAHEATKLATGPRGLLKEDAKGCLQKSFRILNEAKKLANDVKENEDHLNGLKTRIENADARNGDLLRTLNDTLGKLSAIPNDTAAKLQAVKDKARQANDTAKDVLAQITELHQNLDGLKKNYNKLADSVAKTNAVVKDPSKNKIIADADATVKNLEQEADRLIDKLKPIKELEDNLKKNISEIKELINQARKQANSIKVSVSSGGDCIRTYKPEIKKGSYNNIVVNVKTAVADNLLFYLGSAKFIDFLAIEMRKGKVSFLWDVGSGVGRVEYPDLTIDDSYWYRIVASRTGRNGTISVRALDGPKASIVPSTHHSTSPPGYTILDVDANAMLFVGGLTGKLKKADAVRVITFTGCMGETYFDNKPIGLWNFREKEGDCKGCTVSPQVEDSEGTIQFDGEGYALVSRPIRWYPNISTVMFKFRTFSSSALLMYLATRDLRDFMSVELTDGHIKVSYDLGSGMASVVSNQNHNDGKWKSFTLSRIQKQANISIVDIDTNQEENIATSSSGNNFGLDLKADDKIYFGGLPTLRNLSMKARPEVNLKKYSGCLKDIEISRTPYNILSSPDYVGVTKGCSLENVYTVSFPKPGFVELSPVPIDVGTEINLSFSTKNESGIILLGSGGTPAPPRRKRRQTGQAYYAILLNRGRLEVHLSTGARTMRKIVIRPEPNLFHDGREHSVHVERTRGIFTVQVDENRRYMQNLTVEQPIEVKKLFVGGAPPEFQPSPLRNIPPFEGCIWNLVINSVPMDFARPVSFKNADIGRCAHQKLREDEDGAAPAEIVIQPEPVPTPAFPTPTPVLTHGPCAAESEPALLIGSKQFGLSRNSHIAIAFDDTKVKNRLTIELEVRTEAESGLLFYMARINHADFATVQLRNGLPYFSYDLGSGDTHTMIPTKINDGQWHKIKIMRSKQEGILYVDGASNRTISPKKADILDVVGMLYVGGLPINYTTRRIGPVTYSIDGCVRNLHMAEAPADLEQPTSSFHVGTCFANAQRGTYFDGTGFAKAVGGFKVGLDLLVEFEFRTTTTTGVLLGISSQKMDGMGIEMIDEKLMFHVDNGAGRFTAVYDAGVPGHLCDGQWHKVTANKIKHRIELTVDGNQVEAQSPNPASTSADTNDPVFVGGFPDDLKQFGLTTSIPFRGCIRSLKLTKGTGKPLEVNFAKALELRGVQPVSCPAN
# UniProt Q16363, sequence (Q16363 25-1823): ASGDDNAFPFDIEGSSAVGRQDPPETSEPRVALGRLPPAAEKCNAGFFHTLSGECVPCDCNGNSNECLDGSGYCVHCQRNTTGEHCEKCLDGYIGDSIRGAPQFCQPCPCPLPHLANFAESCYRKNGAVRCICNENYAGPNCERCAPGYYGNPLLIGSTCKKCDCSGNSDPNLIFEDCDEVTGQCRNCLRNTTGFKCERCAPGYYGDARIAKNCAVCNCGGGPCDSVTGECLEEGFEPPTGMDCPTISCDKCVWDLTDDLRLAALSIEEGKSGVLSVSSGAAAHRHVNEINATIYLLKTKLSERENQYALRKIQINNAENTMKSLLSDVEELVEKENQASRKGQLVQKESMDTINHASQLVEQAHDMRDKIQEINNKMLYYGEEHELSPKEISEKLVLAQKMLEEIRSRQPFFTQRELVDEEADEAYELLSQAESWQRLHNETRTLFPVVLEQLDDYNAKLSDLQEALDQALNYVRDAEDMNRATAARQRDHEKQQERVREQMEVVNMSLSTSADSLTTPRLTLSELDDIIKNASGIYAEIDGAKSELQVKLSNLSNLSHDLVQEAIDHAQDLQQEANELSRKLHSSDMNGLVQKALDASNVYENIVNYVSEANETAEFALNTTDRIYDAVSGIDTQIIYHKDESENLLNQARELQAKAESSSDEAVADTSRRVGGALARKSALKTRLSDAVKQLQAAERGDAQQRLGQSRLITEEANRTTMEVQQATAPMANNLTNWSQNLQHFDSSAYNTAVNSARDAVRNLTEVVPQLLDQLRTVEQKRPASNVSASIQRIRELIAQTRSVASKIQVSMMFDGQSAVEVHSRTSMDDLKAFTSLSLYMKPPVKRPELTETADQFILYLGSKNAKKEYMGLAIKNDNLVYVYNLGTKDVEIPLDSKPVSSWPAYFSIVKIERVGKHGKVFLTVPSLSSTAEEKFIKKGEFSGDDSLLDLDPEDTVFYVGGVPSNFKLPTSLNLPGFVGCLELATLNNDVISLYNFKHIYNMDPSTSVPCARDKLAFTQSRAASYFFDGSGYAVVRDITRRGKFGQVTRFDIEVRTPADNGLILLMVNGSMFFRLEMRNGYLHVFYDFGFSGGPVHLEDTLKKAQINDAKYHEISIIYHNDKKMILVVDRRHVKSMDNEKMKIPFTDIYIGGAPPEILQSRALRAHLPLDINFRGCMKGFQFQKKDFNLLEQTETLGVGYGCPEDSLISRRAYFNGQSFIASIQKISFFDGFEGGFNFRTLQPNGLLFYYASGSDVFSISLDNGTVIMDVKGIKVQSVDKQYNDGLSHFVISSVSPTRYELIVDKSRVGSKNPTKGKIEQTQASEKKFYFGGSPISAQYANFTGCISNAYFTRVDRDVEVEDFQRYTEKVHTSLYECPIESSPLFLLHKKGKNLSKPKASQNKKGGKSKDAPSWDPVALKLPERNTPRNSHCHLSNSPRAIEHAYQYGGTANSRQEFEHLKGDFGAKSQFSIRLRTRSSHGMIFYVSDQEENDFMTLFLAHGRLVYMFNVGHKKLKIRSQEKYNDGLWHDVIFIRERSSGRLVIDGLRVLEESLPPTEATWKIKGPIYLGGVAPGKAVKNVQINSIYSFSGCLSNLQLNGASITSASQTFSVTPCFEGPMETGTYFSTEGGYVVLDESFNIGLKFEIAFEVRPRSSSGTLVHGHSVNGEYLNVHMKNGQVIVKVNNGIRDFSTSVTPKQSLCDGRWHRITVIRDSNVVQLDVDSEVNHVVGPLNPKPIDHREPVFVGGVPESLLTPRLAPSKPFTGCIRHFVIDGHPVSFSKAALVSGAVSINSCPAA
substance,measurement,setting,value
laminin beta LN domain LN (from UniProt P07942),Kd,[1],18000 nM
nidogen-1 G3 (from UniProt P14543),Kd,[2],< 1 nM
alpha-dystroglycan (from UniProt Q14118),Kd,[3],43 nM
same,Kd,[4],20 nM
same,Kd,[5],> 1000 nM
same,Kd,[6],150 nM
